Reference: paper PMC3763545 (Nucleic Acids Research, 2013)

B2: human full-length SLIP1 (natural protein, UniProt A9UHW6 1-222, looked up)
chain: MGEPSREEYKIQSFDAETQQLLKTALKDPGAVDLEKVANVIVDHSLQDCVFSKEAGRMCYAIIQAESKQAGQSVFRRGLLNRLQQEYQAREQLRARSLQGWVCYVTFICNIFDYLRVNNMPMMALVNPVYDCLFRLAQPDSLSKEEEVDCLVLQLHRVGEQLEKMNGQRMDELFVLIRDGFLLPTGLSSLAQLLLLEIIEFRAAGWKTTPAAHKYYYSEVSD

What was measured:
Test in all cases: ITC
[1] = biological target: zebrafish (Danio rerio) full-length SLIP1 (zebrafish (Danio rerio))
human full-length SLIP1 = biological target: B2
[2] = biological target: T1, human DBP5 f.l. (residues 1-479) (human, UniProt Q9UMR2 1-479)
T1 sequence (looked up): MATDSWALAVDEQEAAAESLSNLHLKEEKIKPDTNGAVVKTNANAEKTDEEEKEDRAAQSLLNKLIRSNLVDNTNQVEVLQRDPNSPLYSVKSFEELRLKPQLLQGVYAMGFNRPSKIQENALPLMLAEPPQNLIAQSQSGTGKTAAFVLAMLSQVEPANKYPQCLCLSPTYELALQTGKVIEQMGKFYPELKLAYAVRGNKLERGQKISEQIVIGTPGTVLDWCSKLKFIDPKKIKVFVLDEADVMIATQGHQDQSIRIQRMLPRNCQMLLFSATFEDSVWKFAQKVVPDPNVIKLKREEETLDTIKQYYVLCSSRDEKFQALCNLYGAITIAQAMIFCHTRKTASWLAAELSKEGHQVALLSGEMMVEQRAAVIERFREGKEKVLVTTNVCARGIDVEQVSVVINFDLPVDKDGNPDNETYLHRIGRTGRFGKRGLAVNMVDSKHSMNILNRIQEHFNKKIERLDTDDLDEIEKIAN

zebrafish DBP5 residues 1-32 (domain or fragment)
Kd [1]: 2000 nM

B1: human DBP5 residues 1-51 (domain or fragment, UniProt Q9UMR2 1-51, looked up)
chain: MATDSWALAVDEQEAAAESLSNLHLKEEKIKPDTNGAVVKTNANAEKTDEE
Kd (human full-length SLIP1): ~1100 nM

B2
Kd [2]: 100 nM
